For assay [1], the target named is T1, KIV10-P recombinant apolipoprotein(a) construct (UniProt P08519 1605-2040, limits assumed).
T1 construct: domain: KIV10 to the protease domain
Kind of assay: dot-blot, pattern duplicated by western blot. Here is the method: (§1) Lp(a) and array of recombinant apo(a) constructs were used to test LPA-KIV₉ binding by (A) Dot-blot (25 ng protein/dot) and (B) western blot (WB) under reducing conditions (250 ng protein/well).
(§2) Imunoblot analyses. An array of apo(a) constructs was subjected to gel electrophoresis and immunoblot analysis with LPA-KIV9. Briefly, samples (250 ng/well) were loaded in reducing loading buffer and run on a 4-12% Bis-Tris gel (Life Technologies). Gels were transferred to a PVDF membrane (Life Technologies), and the membranes were blocked with 5% nonfat dry milk in Tris-buffered saline and Tween (TBST) for 1 hour before incubation with primary antibodies (1 μg/ml in 1% BSA-TBST) overnight at 4° C., followed by incubation with secondary antibodies conjugated with horse-radish peroxidase (Cell Signaling Technology, Beverly, Mass.) for 1 hour at room temperature and by detection with KPL-TMB membrane peroxidase substrate (SeraCare, Milford, Mass., USA). A dot-blot was also performed with antigens in PBS (25 ng/dot) loaded directly on the membrane. Blocking and immunoblotting were done as described above and detected by a Super Signal West Dura substrate (Thermo Fisher Scientific, Waltham, Mass.) and an OptiChem HR imaging system (UVP, Upland, Calif.).
(§3) Determination of the binding domain of LPA-KIV₉ on apolipoprotein(a). […]

Assay [2] has as its target T2, K(IV2)5 recombinant apolipoprotein(a) construct (5 copies of KIV2) (UniProt P08519 131-700, limits assumed).
T2 construct: domain: KIV2, 5 copies
T2 sequence (looked up): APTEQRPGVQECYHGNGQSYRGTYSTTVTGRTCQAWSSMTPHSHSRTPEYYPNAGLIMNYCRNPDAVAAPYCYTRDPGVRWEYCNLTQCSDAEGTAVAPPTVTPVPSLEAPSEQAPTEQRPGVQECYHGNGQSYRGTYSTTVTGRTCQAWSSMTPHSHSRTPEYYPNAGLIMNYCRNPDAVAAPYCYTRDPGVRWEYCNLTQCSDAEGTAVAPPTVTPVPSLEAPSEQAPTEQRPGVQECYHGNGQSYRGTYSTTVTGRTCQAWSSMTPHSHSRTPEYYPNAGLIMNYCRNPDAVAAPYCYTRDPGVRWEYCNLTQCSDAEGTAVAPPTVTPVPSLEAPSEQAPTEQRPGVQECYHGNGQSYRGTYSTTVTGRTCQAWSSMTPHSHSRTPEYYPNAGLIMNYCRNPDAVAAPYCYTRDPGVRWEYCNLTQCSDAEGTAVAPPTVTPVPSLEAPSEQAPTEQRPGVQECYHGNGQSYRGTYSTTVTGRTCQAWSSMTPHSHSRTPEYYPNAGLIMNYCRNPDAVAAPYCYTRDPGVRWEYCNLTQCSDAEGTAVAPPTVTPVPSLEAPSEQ
Kind of assay: dot-blot, pattern duplicated by western blot. Here is the method:
as §1, §2, §3

The target of assay [3] is T3, K(IV2)3 recombinant apolipoprotein(a) construct (3 copies of KIV2) (UniProt P08519 131-472, limits assumed).
T3 construct: domain: KIV2, 3 copies; also called apolipoprotein(a) KIV2
T3 sequence (looked up): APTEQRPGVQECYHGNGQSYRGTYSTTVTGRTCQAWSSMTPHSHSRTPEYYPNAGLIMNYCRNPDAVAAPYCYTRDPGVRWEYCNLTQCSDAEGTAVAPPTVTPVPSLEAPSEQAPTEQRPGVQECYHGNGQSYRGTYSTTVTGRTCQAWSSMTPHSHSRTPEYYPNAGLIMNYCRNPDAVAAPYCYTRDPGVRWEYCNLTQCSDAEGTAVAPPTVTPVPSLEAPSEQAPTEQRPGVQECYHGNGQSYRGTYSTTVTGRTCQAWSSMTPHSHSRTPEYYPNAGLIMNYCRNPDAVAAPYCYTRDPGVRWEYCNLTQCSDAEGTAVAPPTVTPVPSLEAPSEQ
Kind of assay: ELISA of hybridoma subclones on coated antigen. The protocol:
(§4) (A) Mouse plasma titers of Lp(a)-specific antibodies: Following the first boost target-specific antibody titers were determined by ELISA against immobilized antigen by screening serial dilutions of the serum. The graph represents the mean of technical triplicates measurements at 1:400 plasma dilution. (B) Hybridoma screening: 576 hybridoma colonies were collected and expanded. Supernatants were screened by ELISA against the target antigen Lp(a) and counter-screened against antigen K(IV₂)₃. […] (C) Limiting dilution: To ensure monoclonality, 10 positive colonies were subjected to 2 cycles of limiting dilutions, using semi-solid gel without hypoxanthine-aminopterin-thymidine medium. Collected subclones were tested by ELISA. Colony #1 found to specifically binds Lp(a), but not to plasminogen and KIV₂. […] Colony 1 was tested 5 times and designated LPA-KIV₉. (D) Purified LPA-KIV₉ binding to Lp(a) (5 ug/ml) was tested by ELISA. […] Mean±SD.
(§5) ELISA with direct antigen plating to assess binding of hybridoma generated antibodies. […] Bound IgG antibodies were detected using an anti-mouse IgG-alkaline phosphatase (ALP) conjugate (Sigma-Aldrich, St. Louis, Mo.), Lumi-Phos 530 substrate (Lumigen, Southfield, Mich.) and a luminescence plate reader (BioTek, Vermont).

The target in assay [4] is T4, human plasminogen (R&D, Minneapolis, Minn.) (human, UniProt P00747 20-810).
T4 construct: Bought reagent
Description: ELISA of hybridoma subclones on coated antigen. Here is the method: as §4, §5

T1 sequence (P08519 1605-2040 limits assumed): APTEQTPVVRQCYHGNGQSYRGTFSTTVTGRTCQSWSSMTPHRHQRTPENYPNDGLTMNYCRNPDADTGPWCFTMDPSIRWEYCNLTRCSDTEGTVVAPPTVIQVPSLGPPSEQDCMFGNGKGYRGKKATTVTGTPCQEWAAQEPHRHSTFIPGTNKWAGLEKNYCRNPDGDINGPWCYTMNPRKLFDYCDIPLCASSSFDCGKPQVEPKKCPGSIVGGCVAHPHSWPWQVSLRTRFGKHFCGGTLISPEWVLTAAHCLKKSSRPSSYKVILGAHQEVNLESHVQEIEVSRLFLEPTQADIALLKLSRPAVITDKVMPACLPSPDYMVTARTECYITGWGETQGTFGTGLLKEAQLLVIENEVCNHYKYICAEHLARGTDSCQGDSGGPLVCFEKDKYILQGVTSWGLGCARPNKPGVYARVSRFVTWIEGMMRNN
T4 sequence (P00747 20-810 limits assumed): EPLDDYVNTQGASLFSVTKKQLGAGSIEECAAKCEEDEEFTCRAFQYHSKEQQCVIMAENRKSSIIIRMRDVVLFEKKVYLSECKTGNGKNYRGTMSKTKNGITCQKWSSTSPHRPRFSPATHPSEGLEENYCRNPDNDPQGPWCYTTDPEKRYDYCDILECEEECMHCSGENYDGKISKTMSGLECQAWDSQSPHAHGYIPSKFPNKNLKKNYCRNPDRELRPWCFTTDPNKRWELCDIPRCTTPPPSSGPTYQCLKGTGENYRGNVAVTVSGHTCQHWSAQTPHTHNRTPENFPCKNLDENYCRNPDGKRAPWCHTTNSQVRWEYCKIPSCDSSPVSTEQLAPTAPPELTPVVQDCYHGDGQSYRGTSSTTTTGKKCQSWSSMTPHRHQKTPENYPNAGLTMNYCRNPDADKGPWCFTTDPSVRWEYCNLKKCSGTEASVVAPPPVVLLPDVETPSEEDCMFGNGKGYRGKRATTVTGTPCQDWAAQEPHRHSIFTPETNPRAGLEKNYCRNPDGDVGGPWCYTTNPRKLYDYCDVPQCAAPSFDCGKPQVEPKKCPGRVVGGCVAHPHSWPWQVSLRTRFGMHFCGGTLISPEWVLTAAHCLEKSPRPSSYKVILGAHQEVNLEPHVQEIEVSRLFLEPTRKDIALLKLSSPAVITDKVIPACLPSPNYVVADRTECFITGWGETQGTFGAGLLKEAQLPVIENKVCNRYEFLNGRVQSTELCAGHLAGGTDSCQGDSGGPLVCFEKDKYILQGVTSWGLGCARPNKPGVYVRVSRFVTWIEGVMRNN

B1: LPA-KIV9 murine monoclonal antibody (antibody, IgG1, V domains shown)
VH: QVQLQQSGAELVRPGASVKLSCKALGYTFTDYELHWLKQTPVHGLEWIGAVHPGSGGSAYNQNFKDKATLTADKSSSTAYMELSSLTSEDSAVYYCTREGPFYWGQGTTLTVSS
VL: DVVMTQTPLSLPVSLGDQASISCRSSQSLVHSNGNAYLHWYLQKPGQSPKLLIYKVSNRFSGVPDRFSGSGSGTNFTLKISRVEAEDLGIYFCSQSTHVPLTFGAGTKLELK
notes: constant regions are not; also called Colony #1; Colony 1
As to B1, the binding result in assay [1] is “no binding (tested: 25 ng/dot)”; in assay [2], “no binding (tested: 25 ng/dot)”; in assay [3], “no binding”; in assay [4] it was “no binding”.

For the origin of these results see patent publication US20230167198A1 (University of California, published 2023).
